# Source: PMC9486540
# Target: C5b6 (UniProt P13671)
# Experiment: BLI; as a1, but 100nM C7 pre-incubated with anti-C7 mAb TPP1653 (200nM or 2nM) before dipping the C5b6 sensors, then C8 and C9
substance,measurement,value
human complement C7 (from UniProt P10643 23-843) (natural protein),"binding response, percent of max response in controls (with 200nM TPP1653) (% of max response in controls)",60
